Assay results as given in paper PMC5098445 (mAbs, 2016).

Molecular target: human insulin-like growth factor 1 receptor (Homo sapiens, UniProt P08069)
Experiment: SPR

human insulin-like growth factor 1 receptor, sequence (P08069 31-1367): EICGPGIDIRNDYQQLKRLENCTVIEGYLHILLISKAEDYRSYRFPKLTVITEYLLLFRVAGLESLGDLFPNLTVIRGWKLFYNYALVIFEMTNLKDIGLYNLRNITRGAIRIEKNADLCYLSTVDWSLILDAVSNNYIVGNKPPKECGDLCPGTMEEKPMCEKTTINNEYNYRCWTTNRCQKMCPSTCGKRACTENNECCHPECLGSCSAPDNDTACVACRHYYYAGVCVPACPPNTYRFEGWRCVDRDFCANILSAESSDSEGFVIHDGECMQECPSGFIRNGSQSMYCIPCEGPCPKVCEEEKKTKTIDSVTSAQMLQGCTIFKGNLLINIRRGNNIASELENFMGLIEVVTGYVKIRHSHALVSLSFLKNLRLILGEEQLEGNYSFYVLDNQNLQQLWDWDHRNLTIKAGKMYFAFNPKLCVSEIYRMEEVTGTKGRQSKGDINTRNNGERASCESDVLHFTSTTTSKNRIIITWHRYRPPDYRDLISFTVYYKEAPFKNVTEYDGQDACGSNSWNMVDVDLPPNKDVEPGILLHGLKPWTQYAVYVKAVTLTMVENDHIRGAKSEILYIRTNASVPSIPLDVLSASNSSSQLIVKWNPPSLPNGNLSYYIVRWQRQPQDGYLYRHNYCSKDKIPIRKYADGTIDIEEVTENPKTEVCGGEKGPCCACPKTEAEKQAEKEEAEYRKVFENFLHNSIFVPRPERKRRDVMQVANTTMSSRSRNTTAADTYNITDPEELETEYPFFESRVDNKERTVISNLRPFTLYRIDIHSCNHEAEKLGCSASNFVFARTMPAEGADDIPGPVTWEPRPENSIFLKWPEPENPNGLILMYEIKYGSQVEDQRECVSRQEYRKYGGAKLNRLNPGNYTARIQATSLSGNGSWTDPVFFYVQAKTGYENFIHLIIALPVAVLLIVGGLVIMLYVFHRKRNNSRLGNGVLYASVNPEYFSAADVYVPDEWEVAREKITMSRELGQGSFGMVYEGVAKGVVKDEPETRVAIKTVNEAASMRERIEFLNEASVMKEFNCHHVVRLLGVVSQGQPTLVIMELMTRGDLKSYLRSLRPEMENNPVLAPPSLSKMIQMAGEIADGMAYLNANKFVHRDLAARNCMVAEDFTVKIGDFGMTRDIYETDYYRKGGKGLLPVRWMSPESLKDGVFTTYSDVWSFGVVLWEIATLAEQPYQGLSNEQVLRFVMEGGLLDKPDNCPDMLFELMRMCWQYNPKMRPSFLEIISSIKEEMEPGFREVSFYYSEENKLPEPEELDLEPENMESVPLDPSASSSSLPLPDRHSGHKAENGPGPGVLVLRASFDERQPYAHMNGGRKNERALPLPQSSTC

| binding result | Binder |
| --- | --- |
| binds | scFv of AK18 (IGF-1R-binding region) (scFv, V domains shown) VH: QVELVESGGGVVQPGRSQRLSCAASGFTFSSYGMHWVRQAPGKGLEWVAIIWFDGSSTYYADSVRGRFTISRDNSKNTLYLQMNSLRAEDTAVYFCARELGRRYFDLWGRGTLVSVSS VL: EIVLTQSPATLSLSPGERATLSCRASQSVSSYLAWYQQKPGQAPRLLIYDASKRATGIPARFSGSGSGTDFTLTISSLEPEDFAVYYCQQRSKWPPWTFGQGTKVESK |
| binds | scFv of F13B5 (IGF-1R-binding region) (scFv, V domains shown) VH: QVELVESGGGVVQPGRSQRLSCAASGFTFSSYGMHWVRQAPGKGLEWVAIIWFDGSSTYYADSVRGRFTISRDNSKNTLYLQMNSLRAEDTAVYFCARELGRRYFDLWGRGTLVSVSS VL: EIVLTQSPATLSLSPGERATLSCRASQSVSSYLAWYQQKPGQAPRLLIYQASKRATGIPARFSGSGSGTDFTLTISSLEPEDFAVYYCQQRSKYPPWTFGQGTKVESK |
